From PMC6992733, “Analysis of the polycystin complex (PCC) in human urinary exosome–like vesicles (ELVs)” (Scientific Reports, 2020)
Values joined by “and” are separate entries in the source; they are usually repeats but may differ in a detail not shown here. Identical values can stand only once.

B1: polycystin-2 (PC2) of urinary ELVs (natural protein, human (endogenous in urinary ELVs), UniProt Q13563 1-968, looked up)
chain: MVNSSRVQPQQPGDAKRPPAPRAPDPGRLMAGCAAVGASLAAPGGLCEQRGLEIEMQRIRQAAARDPPAGAAASPSPPLSSCSRQAWSRDNPGFEAEEEEEEVEGEEGGMVVEMDVEWRPGSRRSAASSAVSSVGARSRGLGGYHGAGHPSGRRRRREDQGPPCPSPVGGGDPLHRHLPLEGQPPRVAWAERLVRGLRGLWGTRLMEESSTNREKYLKSVLRELVTYLLFLIVLCILTYGMMSSNVYYYTRMMSQLFLDTPVSKTEKTNFKTLSSMEDFWKFTEGSLLDGLYWKMQPSNQTEADNRSFIFYENLLLGVPRIRQLRVRNGSCSIPQDLRDEIKECYDVYSVSSEDRAPFGPRNGTAWIYTSEKDLNGSSHWGIIATYSGAGYYLDLSRTREETAAQVASLKKNVWLDRGTRATFIDFSVYNANINLFCVVRLLVEFPATGGVIPSWQFQPLKLIRYVTTFDFFLAACEIIFCFFIFYYVVEEILEIRIHKLHYFRSFWNCLDVVIVVLSVVAIGINIYRTSNVEVLLQFLEDQNTFPNFEHLAYWQIQFNNIAAVTVFFVWIKLFKFINFNRTMSQLSTTMSRCAKDLFGFAIMFFIIFLAYAQLAYLVFGTQVDDFSTFQECIFTQFRIILGDINFAEIEEANRVLGPIYFTTFVFFMFFILLNMFLAIINDTYSEVKSDLAQQKAEMELSDLIRKGYHKALVKLKLKKNTVDDISESLRQGGGKLNFDELRQDLKGKGHTDAEIEAIFTKYDQDGDQELTEHEHQQMRDDLEKEREDLDLDHSSLPRPMSSRSFPRSLDDSEEDDDEDSGHSSRRRGSISSGVSYEEFQVLVRRVDRMEHSIGSIVSKIDAVIVKLEIMERAKLKRREVLGRLLDGVAEDERLGRDSEIHREQMERLVREELERWESDDAASQISHGLGTPVGLNGQPRPRSSRPSSSQSTEGMEGAGGNGSSNVHV
modifications: mature post-Golgi N-linked glycosylation (PNGase F sensitive, Endo H resistant)
notes: polycystin-2, human, product of PKD2, printed length 968 aa; about 10-13% is cleaved in the C-terminal tail N-terminal to the coiled-coil domain (833..872 aa); also called ELV PC2; source: endogenous, human urinary exosome-like vesicles (ELVs), detergent-solubilised
B2: polycystin-2 (PC2) of human renal cortical tubular epithelial (RCTE) cells (natural protein, human (endogenous in RCTE cells), UniProt Q13563 1-968, looked up)
chain: B1 chain
notes: polycystin-2, human, product of PKD2, printed length 968 aa; also called PC2 from cells; source: endogenous, human RCTE cells

Columns and labels:
[1] = biological target: the molecule itself; assay: native gel or EMSA; purified urinary ELVs with 0.2-0.8% SDS, non reducing, incubated on ice 20 min without heating; native gel; western blot
[2] = biological target: the molecule itself; assay: SDS-PAGE and western blot; human RCTE cells, PC2 bands on SDS-PAGE western blot read as monomer, dimer and tetramer (Supplemental Fig. 2)

Protein | stoichiometry N [1] | stoichiometry N [2]
B1 | 2 | –
B2 | – | 2 and 4
